# Paper PMC4201290
# Legend:
# Assay in all cases: fluorescence polarization
# [1] = biological target: Egr1/Zif268 ZnF1-3 (Homo sapiens) (UniProt P18146); details: FP: 5 nM FAM-dsDNA, 300 mM NaCl (200 mM in Fig 4E), 20 mM Tris-HCl pH 7.5, 5% glycerol, 0.5 mM TCEP, 25 C, 10 min
# [2] = test system: WT1 ZnF2-4 (-KTS) (Homo sapiens), P19544-4; details: FP: 5 nM FAM-dsDNA, 300 mM NaCl (200 mM in Fig 4E), 20 mM Tris-HCl pH 7.5, 5% glycerol, 0.5 mM TCEP, 25 C, 10 min; for Kd: 300 mM NaCl
# [3] = biological target: WT1 ZnF2-4 +KTS isoform (Homo sapiens) (UniProt P19544); details: FP: 5 nM FAM-dsDNA, 300 mM NaCl (200 mM in Fig 4E), 20 mM Tris-HCl pH 7.5, 5% glycerol, 0.5 mM TCEP, 25 C, 10 min
# Sequence of WT1 ZnF2-4 +KTS isoform (Homo sapiens) (P19544 350-440): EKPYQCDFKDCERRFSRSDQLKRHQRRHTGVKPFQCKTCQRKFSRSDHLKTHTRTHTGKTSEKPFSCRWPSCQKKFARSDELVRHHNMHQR
# [4] = 5fC at C9 of strand 1, 5mC at C3 of strand 1 and C3, C9 of strand 2
# [5] = 5hmC at C9 of strand 1, 5mC at C3 of strand 1 and C3, C9 of strand 2
# [6] = 5hmC at C3 and C9 of strand 1, 5mC at C3 and C9 of strand 2
# [7] = 5mC at C3 and C9 of strand 2 only
# [8] = 5mC at C3 and C9 of both strands
# Sequence of WT1 ZnF2-4 (-KTS) (Homo sapiens), P19544-4 (P19544 other isoform, or with tags, fused parts or gaps): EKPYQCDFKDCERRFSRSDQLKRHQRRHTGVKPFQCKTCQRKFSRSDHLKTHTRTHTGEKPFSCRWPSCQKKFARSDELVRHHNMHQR
sequence,measurement,setting,value
AGCGTGGGCGT / TACGCCCACGC [5caCx1],Kd,"[1]; 5caC at C9 of strand 1, 5mC at C3 of strand 1 and C3, C9 of strand 2",> 12000 nM
same,Kd,"[2]; 2-fold stronger than 5mC, 5caC at C9 of strand 1, 5mC at C3 of strand 1 and C3, C9 of strand 2",50 nM
AGCGTGGGCGT / TACGCCCACGC [5caCx2],Kd,"[2]; ~25-fold weaker than M/M, also printed as KD > 2.3 uM, 5caC at C3 and C9 of strand 1, 5mC at C3 and C9 of strand 2",2300 nM
AGCGTGGGCGT / TACGCCCACGC [5fCx1],binding signal (fold weaker than 5mC (M/M)),[1]; [4],15
same,binding signal (fold weaker than 5mC (M/M)),[2]; [4],14
AGCGTGGGCGT / TACGCCCACGC [5fCx2],binding signal (fold weaker than M/M),"[2]; 5fC at C3 and C9 of strand 1, 5mC at C3 and C9 of strand 2",75
AGCGTGGGCGT / TACGCCCACGC [5hmCx1],binding signal (fold weaker than 5mC (M/M)),[1]; [5],3.6
same,binding signal (fold weaker than 5mC (M/M)),[2]; [5],4.5
AGCGTGGGCGT / TACGCCCACGC [5hmCx2],binding signal (fold weaker than M/M),[1]; [6],24
same,binding signal (fold weaker than M/M),[2]; [6],75
AGCGTGGGCGT / TACGCCCACGC [C/C],binding signal (fold weaker than M/M),[1]; none,2.8
same,binding signal (fold weaker than M/M),[2]; none,1.8
same,binding signal (fold weaker than -KTS isoform),[3]; none,24
AGCGTGGGCGT / TACGCCCACGC [C/M],binding signal (fold weaker than M/M),[1]; [7],2
same,binding signal (fold weaker than M/M),[2]; [7],1.2
same,binding signal (fold weaker than -KTS isoform),[3]; [7],24
AGCGTGGGCGT / TACGCCCACGC [M/M],binding signal (fold stronger than C/C),[1]; [8],2.8
same,binding signal (fold stronger than C/C),[2]; [8],1.8
same,binding signal (fold weaker than -KTS isoform),"[3]; 300 mM NaCl, 25-fold also printed (Fig 4C), 5mC at C3 and C9 of both strands",24
